Reference: PMC7504102, “The Penta-EF-Hand ALG-2 Protein Interacts with the Cytosolic Domain of the SOCE Regulator SARAF and Interferes with Ubiquitination” (International Journal of Molecular Sciences, 2020)
Substitutions are numbered along the chain they refer to. In names and notes the source's numbering stands. One block for each binder: values may come before it.

What was measured:
[1] = biological target: T1, StrepHA-SARAF_CytD-SGFP2 F228S (human, UniProt Q96BY9 195-339, F228S); experiment: co-IP; co-IP/HiBiT assay: SGFP2-fused proteins immunoprecipitated with anti-GFP pAb from HEK293 or HEK293 ALG-2KO lysates (with or without co-expressed FLAG-ALG-2); HKM, 1% Nonidet P-40, 10 mM NEM, 10 μM CaCl2; co-precipitated HiBiTHA-SARAF read by lytic HiBiT assay with LgBiT, normalised by StrepTactin-AP; settings: partners not purified
T1 construct: SARAF CytD, human, 195-339 a.a., F228S; also called F228S mutant; source: HEK293 or HEK293 ALG-2KO, transfected, in lysate; not shown: Twin-Strep, N-terminal, kept; 3xHA, N-terminal, kept; SGFP2, C-terminal, kept
T1 sequence (looked up): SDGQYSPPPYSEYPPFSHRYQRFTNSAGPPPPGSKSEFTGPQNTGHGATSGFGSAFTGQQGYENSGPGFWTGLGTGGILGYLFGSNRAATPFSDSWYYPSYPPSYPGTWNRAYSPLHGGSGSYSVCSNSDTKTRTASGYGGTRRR

[2] = biological target: T2, StrepHA-SARAF_CytD-SGFP2 (WT) (human, UniProt Q96BY9 195-339); experiment: as above; settings: partners not purified
T2 construct: SARAF cytosolic domain (CytD), human, 195-339 a.a; source: HEK293 or HEK293 ALG-2KO, transfected, in lysate; not shown: Twin-Strep, N-terminal, kept; 3xHA, N-terminal, kept; SGFP2, C-terminal, kept
T2 sequence (looked up): T1 sequence (looked up) with S34F

[3] = biological target: T3, SGFP2-fused SARAF partial fragment (SARAF-p) (human, UniProt Q96BY9 195-339); experiment: pull-down; SGFP2-fused proteins held on protein G magnetic beads via anti-GFP pAb; incubated with Nluc-ALG-2 (300 ng/mL) in buffer HKM, 0.2% Nonidet P-40, 0.1% gelatin, 100 μM CaCl2, 2 h, 4 °C; bound luciferase activity relative to Sec31A-p (100%); settings: one partner purified
T3 construct: source: HEK293 ALG-2KD, transfected, immunoprecipitated with anti-GFP pAb from cleared lysate
T3 sequence (looked up): T1 sequence (looked up) with S34F

relative interaction activity (WT expressed as 100%) [1]: ~15 % of WT
B1: full-length HiBiTHA-SARAF F228S (natural protein, human, UniProt Q96BY9 31-339, looked up)
chain: WNDPDRMLLRDVKALTLHYDRYTTSRRLDPIPQLKCVGGTAGCDSYTPKVIQCQNKGWDGYDVQWECKTDLDIAYKFGKTVVSCEGYESSEDQYVLRGSCGLEYNLDYTELGLQKLKESGKQHGFASFSDYYYKWSSADSCNMSGLITIVVLLGIAFVVYKLFLSDGQYSPPPYSEYPPFSHRYQRFTNSAGPPPPGSKSEFTGPQNTGHGATSGFGSAFTGQQGYENSGPGFWTGLGTGGILGYLFGSNRAATPFSDSWYYPSYPPSYPGTWNRAYSPLHGGSGSYSVCSNSDTKTRTASGYGGTRRR
notes: signal peptide in the construct; SARAF, human, full length, HiBiTHA inserted after the signal peptide; F228S; source: HEK293, transfected, in lysate; not shown: HiBiT, internal (after residue 30), kept

fold enhancement, Ca2+ over 5 mM EGTA, HEK293 ALG-2KO cells [2]: 1.3 fold
fold enhancement, Ca2+ over 5 mM EGTA, parental HEK293 cells [2]: 3.7 fold
B2: full-length HiBiTHA-SARAF (WT) (natural protein, human, UniProt Q96BY9 31-339, looked up)
chain: B1 chain with S198F
notes: signal peptide in the construct; SARAF, human, full length; HiBiT and 3xHA (HiBiTHA) inserted between the signal peptide and the N-terminus of mature SARAF (31-339 a.a.); construction is in the Supplementary Information; source: HEK293 or HEK293 ALG-2KO, transfected, in lysate; not shown: HiBiT, internal (after residue 30), kept

binding activity relative to Sec31A-p (100%) [3]: 71.5%
B3: nanoluciferase (NanoLuc, Nluc)-fused ALG-2 (natural protein, UniProt O75340 1-191, looked up)
chain: MAAYSYRPGPGAGPGPAAGAALPDQSFLWNVFQRVDKDRSGVISDTELQQALSNGTWTPFNPVTVRSIISMFDRENKAGVNFSEFTGVWKYITDWQNVFRTYDRDNSGMIDKNELKQALSGFGYRLSDQFHDILIRKFDRQGRGQIAFDDFIQGCIVLQRLTDIFRRYDTDQDGWIQVSYEQYLSMVFSIV
notes: synthetic gene for bacterial expression in pET24d; The whole Nluc-ALG-2 fusion is deposited as LC381846; also called Nluc-ALG-2; NlucALG-2
